Reference: the supplement of paper PMC7125110
± gives the standard error. Variants at the floor of the assay were thinned out.

B1: glmS ribozyme (parent)
chain: AUAAAAGCGCCAGAACUACAGAAAUGUAGUUGACGAGGAGGAGGUUUAUCGAAUUUUCGGCGGAUGCCUCCAAA

Legend:
Conditions in all cases: with glucosamine-6-phosphate
glucosamine-6-phosphate [1] = variants of: B1; test: self-cleavage kobs at 160 uM GlcN6P; higher = faster cleavage; RNA array
Procedure, shortened: (§1)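 Barcoded ribozyme variants were transcribed in situ on sequenced MiSeq chips by E. coli RNA polymerase. At 37 °C, a hybridised Cy3 probe tracked them while glucosamine-6-phosphate (40 μM to 10 mM) in HEPES/KCl/Mg(OAc)2 buffer flowed in and tiles were imaged over ~14 h. Per-tile medians of signals normalised to baseline and to non-cleaving reference variants were fit to one- or two-exponential decays, giving kobs. kcat and KM came from weighted Michaelis–Menten fits across concentrations.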

glucosamine-6-phosphate [2] = variants of: B1; test: self-cleavage kobs at 640 uM GlcN6P; higher = faster cleavage; RNA array
Procedure, shortened: as §1

glucosamine-6-phosphate [3] = variants of: B1; test: self-cleavage kobs at 10000 uM GlcN6P; higher = faster cleavage; RNA array
Procedure, shortened: as §1

glucosamine-6-phosphate [4] = variants of: B1; test: self-cleavage kobs at 2500 uM GlcN6P; higher = faster cleavage; RNA array
Procedure, shortened: as §1

Variant	self-cleavage kobs at 160 uM GlcN6P (glucosamine-6-phosphate [1]) [s⁻¹]	self-cleavage kobs at 640 uM GlcN6P (glucosamine-6-phosphate [2]) [s⁻¹]	self-cleavage kobs at 10000 uM GlcN6P (glucosamine-6-phosphate [3]) [s⁻¹]	self-cleavage kobs at 2500 uM GlcN6P (glucosamine-6-phosphate [4]) [s⁻¹]
G59C G63A	< 1e-05	< 1e-05	< 1e-05	–
G38A A42G G60A	< 1e-05	–	–	–
G37U C58A	< 1e-05	–	< 1e-05	–
U30A A48U G62A	< 1e-05	< 1e-05	–	< 1e-05
A36U G63U	< 1e-05	< 1e-05	–	< 1e-05
C50G A64C	7.93e-05 ± 2.1e-05	–	2.52e-05 ± 1.2e-05	6.53e-05 ± 1.7e-05
G41C U54G C67U	< 1e-05	–	–	–
C16G G62C A64U	< 1e-05	–	–	–
A48G G66C	< 1e-05	< 1e-05	< 1e-05	< 1e-05
U30C A36G	< 1e-05	–	< 1e-05	–
U30C U31G C50G C70G	0.000158 ± 4.4e-05	0.000289 ± 0.0001	–	0.00026 ± 5.8e-05
A14G G35A	< 1e-05	< 1e-05	< 1e-05	< 1e-05
G29U A42G A53U	0.000316 ± 6.8e-05	0.00125 ± 0.00026	–	0.00271 ± 0.00069
C34A C58A	< 1e-05	< 1e-05	< 1e-05	< 1e-05
A15G A33C C58G	< 1e-05	< 1e-05	–	–
G29C G41C G60A	< 1e-05	< 1e-05	< 1e-05	< 1e-05
C34G A64U C67U	< 1e-05	< 1e-05	–	–
G35A C68U	< 1e-05	–	–	< 1e-05
A33U G38A A39G	< 1e-05	< 1e-05	–	–
C58A U69A	4.65e-05 ± 2.2e-05	9.55e-05 ± 2.9e-05	–	0.000101 ± 3.1e-05
U45G U57A G59A G62U	< 1e-05	–	< 1e-05	< 1e-05
C50A G51C U55C G60U	< 1e-05	–	< 1e-05	–
A33U G38U G41C G66U	< 1e-05	–	–	< 1e-05
A14U U31G C67A	7.69e-05 ± 2.3e-05	0.000354 ± 7.7e-05	–	0.000746 ± 0.00014
C16G U46A C50A U69G	0.000562 ± 0.00018	–	–	–

Variant	self-cleavage kobs at 160 uM GlcN6P (glucosamine-6-phosphate [1]) [s⁻¹]	self-cleavage kobs at 640 uM GlcN6P (glucosamine-6-phosphate [2]) [s⁻¹]	self-cleavage kobs at 10000 uM GlcN6P (glucosamine-6-phosphate [3]) [s⁻¹]	self-cleavage kobs at 2500 uM GlcN6P (glucosamine-6-phosphate [4]) [s⁻¹]
G37U G51C A52U G63U	< 1e-05	–	–	–
A48C G62U	< 1e-05	< 1e-05	–	< 1e-05
U47G C50A A64G U69G	0.000158 ± 4.6e-05	0.000155 ± 3.9e-05	3.49e-05 ± 1.6e-05	0.000142 ± 3.1e-05
G41C G51C A64C	< 1e-05	–	–	–
C50A C67U C68U	6.13e-05 ± 3.1e-05	6.87e-05 ± 2.8e-05	–	0.000153 ± 6.2e-05
G37U A42U A53G	< 1e-05	–	–	< 1e-05
G59C G62A	< 1e-05	< 1e-05	–	< 1e-05
C16A A33G A64G C71G	8.57e-05 ± 3.4e-05	–	–	6.35e-05 ± 2.8e-05
G40U U49C U65G	< 1e-05	–	–	< 1e-05
U49C U57C G60A G63A	< 1e-05	< 1e-05	–	< 1e-05
A39G G41C U46G A64U	< 1e-05	–	–	–
C16G G51U U56C C70U	< 1e-05	< 1e-05	–	–
A42U U45C A52G G59U	< 1e-05	–	–	–
A39G A42U A64C	< 1e-05	< 1e-05	–	< 1e-05
U49G G63U	< 1e-05	–	< 1e-05	< 1e-05
G38A G40U	< 1e-05	< 1e-05	< 1e-05	< 1e-05
U45C A48U U69C	< 1e-05	< 1e-05	–	–
G29U G35U G38U A52G	< 1e-05	< 1e-05	–	–
A14G G35A U47C C67A	< 1e-05	< 1e-05	–	–
G41A G60A G63U	< 1e-05	< 1e-05	< 1e-05	< 1e-05
U30A G41U U57G G62A	< 1e-05	< 1e-05	–	< 1e-05
A15C A64U	< 1e-05	< 1e-05	–	–
U55G G62C	< 1e-05	< 1e-05	< 1e-05	< 1e-05
A42G U46G U65C C68U	< 1e-05	–	–	–
A36C U47G U69G	0.000151 ± 3.4e-05	8.37e-05 ± 1.5e-05	–	0.000213 ± 6e-05

Variant	self-cleavage kobs at 160 uM GlcN6P (glucosamine-6-phosphate [1]) [s⁻¹]	self-cleavage kobs at 640 uM GlcN6P (glucosamine-6-phosphate [2]) [s⁻¹]	self-cleavage kobs at 10000 uM GlcN6P (glucosamine-6-phosphate [3]) [s⁻¹]	self-cleavage kobs at 2500 uM GlcN6P (glucosamine-6-phosphate [4]) [s⁻¹]
G38C A64G	< 1e-05	< 1e-05	–	–
G29A A39C C61G	< 1e-05	< 1e-05	< 1e-05	–
U31A G43A	< 1e-05	< 1e-05	2.99e-05 ± 9.3e-06	–
A36G G41A G63U	< 1e-05	< 1e-05	–	–
G29C A33C C61G C68U	< 1e-05	< 1e-05	< 1e-05	–
A36C G41C C50U A64U C68A	< 1e-05	< 1e-05	< 1e-05	< 1e-05
A14U U45A U46C	0.000306 ± 0.0001	0.00108 ± 0.00027	–	0.00191 ± 0.00053
U57C C58U	< 1e-05	–	–	–
G44U C50A	< 1e-05	< 1e-05	< 1e-05	< 1e-05
C34A G41C	< 1e-05	< 1e-05	< 1e-05	< 1e-05
U56A G63C	< 1e-05	–	–	< 1e-05
C34G C58U A64C C67G	4.06e-05 ± 2e-05	7.23e-05 ± 2.6e-05	–	–
A39U G41A G62U	< 1e-05	–	–	< 1e-05
C19A U65A	0.000107 ± 4.8e-05	–	–	0.00137 ± 0.00051
A52C U65C	< 1e-05	< 1e-05	–	–
G51U C61A C71A	< 1e-05	< 1e-05	–	< 1e-05
G32U U54G	7.28e-05 ± 2.7e-05	0.000164 ± 5.1e-05	0.000903 ± 0.00012	0.000272 ± 6.1e-05
A36U C61G C70G	6.28e-05 ± 2.3e-05	9.55e-05 ± 2.6e-05	–	–
C16U U55C	0.00153 ± 0.00037	–	–	0.00585 ± 0.0013
G32A A42C	< 1e-05	< 1e-05	< 1e-05	< 1e-05
C16G A52G U69G	9.5e-05 ± 3e-05	–	–	0.000143 ± 3.9e-05
U31C G43U A48U U55A	< 1e-05	< 1e-05	–	< 1e-05
A39G U65C	5.26e-05 ± 2.5e-05	0.000513 ± 0.00015	–	0.00163 ± 0.0005
G35U U69A	< 1e-05	< 1e-05	–	< 1e-05
G44C C58A	< 1e-05	< 1e-05	< 1e-05	< 1e-05

Variant	self-cleavage kobs at 160 uM GlcN6P (glucosamine-6-phosphate [1]) [s⁻¹]	self-cleavage kobs at 640 uM GlcN6P (glucosamine-6-phosphate [2]) [s⁻¹]	self-cleavage kobs at 10000 uM GlcN6P (glucosamine-6-phosphate [3]) [s⁻¹]	self-cleavage kobs at 2500 uM GlcN6P (glucosamine-6-phosphate [4]) [s⁻¹]
A36C A42G	< 1e-05	–	< 1e-05	< 1e-05
G44A U54C U65G C68G	< 1e-05	< 1e-05	–	< 1e-05
A42C U45G	< 1e-05	< 1e-05	–	–
G51U A64U	< 1e-05	< 1e-05	< 1e-05	< 1e-05
A15U G38C C71A	< 1e-05	–	–	< 1e-05
A15C A42U U46G C50G	< 1e-05	< 1e-05	–	< 1e-05
C16G G41C G59A	< 1e-05	< 1e-05	–	< 1e-05
C34G G40U G62C	< 1e-05	–	–	–
G40A C67G	< 1e-05	< 1e-05	–	–
A14G U31C U56A	0.0016 ± 0.00031	0.00939 ± 0.0013	–	0.0277 ± 0.0066
U30A G32C G62A	< 1e-05	–	–	< 1e-05
G38C G59C C67G	< 1e-05	–	–	< 1e-05
U49G G60C	< 1e-05	< 1e-05	–	< 1e-05
G51U A52U U65G	< 1e-05	< 1e-05	–	< 1e-05
A39C G51U C71A	< 1e-05	–	–	–
G37U C50G	7.65e-05 ± 3.7e-05	–	–	–
G37A G59A G62A	< 1e-05	–	–	–
U31C A64U U65A	< 1e-05	< 1e-05	–	–
G38U U56C U65A	< 1e-05	–	< 1e-05	< 1e-05
A42C C50U	< 1e-05	< 1e-05	< 1e-05	< 1e-05
G29U U65A C68G	5.02e-05 ± 1.1e-05	6.79e-05 ± 1.4e-05	–	3.55e-05 ± 1.3e-05
A15U C34U C50G	0.000153 ± 3.2e-05	–	–	0.000132 ± 3.4e-05
C34A G66U	< 1e-05	< 1e-05	< 1e-05	–
G51C G60A U69A	< 1e-05	–	–	–
